Test results from patent US20040081659.

Legend:
[1] = test system: Ac-4-trans-L-HypSSChgQS-(4-O-Ala)-(dAc)-VIN
[2] = test system: Ac-AbuSSChgQ-SS-(4-O-P)-dAc-VIN
[3] = test system: Ac-4-trans-L-HypSSChgQSS-(4-O-Sar)-(dAc)-VIN
[4] = test system: Ac-AbuSSChgQ-S(dS)-(4-O-P)-dAc-VIN
[5] = test system: 4-O-(Ac-SSChgQS-Gly)-(dAc)-VIN
[6] = test system: 4-O-(Ac-4-trans-L-HypSSChgQ-SS-4-trans-L-Hyp)-dAc-VIN
[7] = test system: 4-O-(Ac-SSChgQ-SS-P)-dAc-VIN
[8] = test system: (4-O)-Ac-(4-trans-L-Hyp)SSChgQ-SL-(dAc)-VIN
[9] = test system: Ac-4-trans-L-HypSSChgQ-SChg-(4-O-lactyl)-dAc-VIN
[10] = test system: des-Acetylvinblastine-4-O-(N-Acetyl-4-trans-L-Hyp-Ser-Ser-Chg-Gln-Ser-Ser-Pro) ester
[11] = test system: 4-O-(Ac-4-trans-L-HypSSChgQSL-lactyl)-(dAc)-VIN
[12] = test system: 4-O-(Ac-SSChgQ-SS-4-trans-L-Hyp)-dAc-VIN
[13] = test system: 4-O-(Ac-Abu-SSChgQ-SP)-dAc-VIN
[14] = test system: Ac-4-trans-L-HypSSChgQSChg-(4-O-glycolyl)-VIN
[15] = test system: 4-O-(Ac-4-trans-L-HypSSChgQSS-Sar)-(dAc)-VIN
[16] = test system: 4-O-(Ac-4-trans-L-HypSSChgQSV-glycolyl)-VIN
[17] = test system: 4-O-((2-OH)Ac-Abu-SSChgQ-S-P)-dAc-VIN
[18] = test system: 4-O-(Ac-4-trans-L-HypSSChgQS-Glycine)-(dAc)-VIN

## free prostate specific antigen (PSA)
[1]
  Time to 50% Substrate Cleavage by York PSA (Min): 23 (prod converts to 4-O-A-dAc-VIN)
[2]
  Time to 50% Substrate Cleavage by York PSA: 7 min
[3]
  Time to 50% Substrate Cleavage by York PSA: 15 min
[4]
  Time to 50% Substrate Cleavage by York PSA: 60 min
[5]
  Time to 50% Substrate Cleavage by York PSA: 55 min
[6]
  Time to 50% Substrate Cleavage by York PSA: 13 min
[7]
  Time to 50% Substrate Cleavage by York PSA: 15 min
[8]
  Time to 50% Substrate Cleavage by York PSA: 35 min
[9]
  Time to 50% Substrate Cleavage by York PSA: 14 min
[10]
  Time to 50% Substrate Cleavage by York PSA: 17 min
[11]
  Time to 50% Substrate Cleavage by York PSA: 10 min
[12]
  Time to 50% Substrate Cleavage by York PSA: 22 min
[13]
  Time to 50% Substrate Cleavage by York PSA: 80 min
[14]
  Time to 50% Substrate Cleavage by York PSA: 12 min
[15]
  Time to 50% Substrate Cleavage by York PSA: 32 min
[16]
  Time to 50% Substrate Cleavage by York PSA: 8 min
[17]
  Time to 50% Substrate Cleavage by York PSA: 110 min
[18]
  Time to 50% Substrate Cleavage by York PSA: 30 min
